Laboratory results: the DeepSol protein solubility set

Assay: soluble on expression in E. coli; label from the status in PepcDB or PDB records
For “MSWQTYVDEHLMCDIDGQGEELAASAIVGHDGSVWAQSSSFPQFKPQEITGIMKDFEEPGHLAPTGLHLGGIKYMVIQGEAGAVIRGKKGSGGITIKKTGQALVFGIYEEPVTPGQCNMVVERLGDYLIDQGL”, the “soluble on expression in E. coli” value was “soluble”.
With “MSWTDERVELLKKMWGEGQSASQIAKELGGVTRNAVIGKVHRLGLSNRSSGAAPASTKAETKEKPAAATPRAEAKPKPAPRPEPLRAAPDPAPAPQPAEIKPIPARKQIIPAGQPLPPQPSANEISPEALAKVNEVEKKAKKLSLMELTERTCKWPVGDPATEDFWFCGLPVQQGKPYCEAHVGVAFQPMSSRRDRRRLEHHHHHH” the “soluble on expression in E. coli” value was “soluble”.
With “MSYAKVSHWQMASTEQLIIPPNNDPRPDDQLVIVVVTADGIASPIPLNVSRREVIRQVEMLNRNLTAANRGDNYQGQASQLYDWFIKPIKLILENKKIENISFILDRGLRSLPMATMYDRQSGQYLIEDYSVGLMPSLSLTNRDYAPLTGAQILAMGAEEFANQNPLPAAAVEVDTITNQLWRGSAFLNDRFTVDNFVQSLATKEYRLVHLATHGEFLPGNRNNSFVVFSDRSLDLDEFANVGLDKPIDLMVLSACRTAVGDFDAELGFAGLAVKTGVKTAIGSLWYVSDEATFALMTSFYDRLQPAPIKAKALQQAQLSLLRGEIRVVDGNLVLGDGTNISLADLPADIRQRLATQDLSHPYFWSGFTLVGSPWLEHHHHHH” the “soluble on expression in E. coli” value was “not soluble”.
For “MSYCCCQSNIPPDGCIRDGMPVFCGLFPSGYRAPPRSLSPPAFRSVLVSGHQPQYADCQTRTGRPVRSPVTPPPAHTSAVHGALSLPGQPADMAMMCFHSQPRDEYGETDDTGMYPAHWKDWPSGCTRSQSVYR”, the “soluble on expression in E. coli” value was “soluble”.
For “MSYGLIIVLMIILGIGLWHTKKYHRAVVNQVAHVWITKNAFEHTALGMAIVSPDCRFLKVNRAYGEITGYTRPELLKMAVKELTHPEDQEKDTPYLQEVFAGNIHSFTTVKRYIHKNGSTIWVRSTISAVRTERGNLKYFVLEHHHHHH”, the “soluble on expression in E. coli” value was “not soluble”.
In the case of “MSYNNLLAIEKPVRYTGDEIGSRPKEDAELRFVLAFPDVYEVGMSHLGLQILYDILNREEGIAAERAYTPWPDREAQLRSLGESLATLESQTSLARADIIGFTLQYELSYTNILTMLDLAGIPFRAAERGDEFPLVIAGGPCACNPEPLADFLDAVLLGDGEEAVVEIAAACLERKRNGESKQWLLERLASIDGVYVPSFFEPRYHDDGTIDAIIPLRPAHGRVRRRFLSDLDTAPYPTAPVVPFLKTIHDRVSIEIGRGCTRGCRFCQAGYLYRPVRERSPETILKLVEETLRNTGYDEVSLLSLSTGDYGCLTPLLRELMVRYAHERIAVALPSLRVGSLSQELVEEIRKVRKTGFTLAPEAGSERLRTIINKGISEEDLLRNAFEAFSNGWRVIKLYFMIGLPGETEEDLVGIADLARKVKQEGKRAGSGGEVNVSVSTFVPKPHTPFQWEPQITTEETVAKQRFLRDELKKRKLGLKWHDAPLSFMEGVFARGDRRLGAVLAKAWELGCRFDGWGDRLKSTTWHEAFAVCGIDPAFYHRRRGIDETLPWDHLDFGVTRAFLRQELEKAWAGEPTGDCRTGRCTGCGICDFDRIAMRTTDPAWQKGLEHHHHHH”, the “soluble on expression in E. coli” value is reported as “not soluble”.
With “MSYNYVVTAQKPTAVNGCVTGHFTSAEDLNLLIAKNTRLEIYVVTAEGLRPVKEVGMYGKIAVMELFRPKGESKDLLFILTAKYNACILEYKQSGESIDIITRAHGNVQDRIGRPSETGIIGIIDPECRMIGLRLYDGLFKVIPLDRDNKELKAFNIRLEELHVIDVKFLYGCQAPTICFVYQDPQGRHVKTYEVSLREKEFNKGPWKQENVEAEASMVIAVPEPFGGAIIIGQESITYHNGDKYLAIAPPIIKQSTIVCHNRVDPNGSRYLLGDMEGRLFMLLLEKEEQMDGTVTLKDLRVELLGETSIAECLTYLDNGVVFVGSRLGDSQLVKLNVDSNEQGSYVVAMETFTNLGPIVDMCVVDLERQGQGQLVTCSGAFKEGSLRIIRNGIGIHEHASIDLPGIKGLWPLRSDPNRETYDTLVLSFVGQTRVLMLNGEEVEETELMGFVDDQQTFFCGNVAHQQLIQITSASVRLVSQEPKALVSEWKEPQAKNISVASCNSSQVVVAVGRALYYLQIHPQELRQISHTEMEHEVACLDITPLGDSNGLSPLCAIGLWTDISARILKLPSFELLHKEMLGGEIIPRSILMTTFESSHYLLCALGDGALFYFGLNIETGLLSDRKKVTLGTQPTVLRTFRSLSTTNVFACSDRPTVIYSSNHKLVFSNVNLKEVNYMCPLNSDGYPDSLALANNSTLTIGTIDEIQKLHIRTVPLYESPRKICYQEVSQCFGVLSSRIEVQDTSGGTTALRPSASTQALSSSVSSSKLFSSSTAPHETSFGEEVEVHNLLIIDQHTFEVLHAHQFLQNEYALSLVSCKLGKDPNTYFIVGTAMVYPEEAEPKQGRIVVFQYSDGKLQTVAEKEVKGAVYSMVEFNGKLLASINSTVRLYEWTTEKDVRTECNHYNNIMALYLKTKGDFILVGDLMRSVLLLAYKPMEGNFEEIARDFNPNWMSAVEILDDDNFLGAENAFNLFVCQKDSAATTDEERQHLQEVGLFHLGEFVNVFCHGSLVMQNLGETSTPTQGSVLFGTVNGMIGLVTSLSESWYNLLLDMQNRLNKVIKSVGKIEHSFWRSFHTERKTEPATGFIDGDLIESFLDISRPKMQEVVANLQYDDGSGMKREATADDLIKVVEELTRIH” the “soluble on expression in E. coli” value was “soluble”.
In the case of “MSYQPTSLTVASYNLRNANGSDSARGDGWGQRYPVIAQMVQYHDFDIFGTQECFLHQLKDMKEALPGYDYIGVGRDDGKDKGEHSAIFYRTDKFDIVEKGDFWLSETPDVPSKGWDAVLPRICSWGHFKCKDTGFEFLFFNLHMDHIGKKARVESAFLVQEKMKELGRGKNLPAILTGDFNVDQTHQSYDAFVSKGVLCDSYEKCDYRYALNGTFNNFDPNSFTESRIDHIFVSPSFHVKRYGVLTDTYRSVRENSKKEDVRDCPEEITIKAYEARTPSDHFPVKVELVFDLEHHHHHH”, the “soluble on expression in E. coli” value is reported as “soluble”.
In the case of “MSYRMFDYLVPNVNFFGPNAISVVGERCQLLGGKKALLVTDKGLRAIKDGAVDKTLHYLREAGIEVAIFDGVEPNPKDTNVRDGLAVFRREQCDIIVTVGGGSPHDCGKGIGIAATHEGDLYQYAGIETLTNPLPPIVAVNTTAGTASEVTRHCVLTNTETKVKFVIVSWRNLPSVSINDPLLMIGKPAALTAATGMDALTHAVEAYISKDANPVTDAAAMQAIRLIARNLRQAVALGSNLQAREYMAYASLLAGMAFNNANLGYVHAMAHQLGGLYDMPHGVANAVLLPHVARYNLIANPEKFADIAELMGENITGLSTLDAAEKAIAAITRLSMDIGIPQHLRDLGVKETDFPYMAEMALKDGNAFSNPRKGNEQEIAAIFRQAF”, the “soluble on expression in E. coli” value is reported as “soluble”.
For “MSYSIDNPGGGDCGFYALAIGLISIIQNEYKLHGKSKTYDRWKQVENIYGVRLQDILNIDLTKLHYSPYTYKSELLFLLQMSLRNIAVIVNKEDLVKRIIEEGRSKDQTKIEGSNAYCKFMELVQLYLYRRGSLERISQFNELALSPEIVQTARDIARMLRPILRNQPFHQAQKIENAFVKEVLLNDVLSGNTINSNSIILKSLEKIKEQGRWATHDDLKEIAELLKINLNVVGQPNGKPIPEYPTVTLKNLSNTHWITQVESLQGPRQYSTPSKRAFGYETLSDRAVPLKEEQTLDRAFRTETQSERTRRYNQHFETLFDTLSPYGFFPHVQSKRNVHVFGKAQTGLESDEALAAQLQEAELRRILY”, the “soluble on expression in E. coli” value was “not soluble”.
For “MSYYHHHHHHDYDIPTENLYFQGAMGRADPRNQRVLLDEYSRQRGQITAGGQLLAYSVATDGRFRFLRVYPNPEVYAPVTGFYSLRYSSTALERAEDPILNGSDRRLFGRRLADFFTGRDPRGGNVDTTINPRIQQAGWDAMQQGCYGPCKGAVVALEPSTGKILALVSSPSYDPNLLASHNPEVQAQAWQRLGDNPASPLTNRAISETYPPGSTFKVITTAAALAAGATETEQLTAAPTIPLPGSTAQLENYGGAPCGDEPTVSLREAFVKSCNTAFVQLGIRTGADALRSMARAFGLDSPPRPTPLQVAESTVGPIPDSAALGMTSIGQKDVALTPLANAEIAATIANGGITMRPYLVGSLKGPDLANISTTVGYQQRRAVSPQVAAKLTELMVGAEKVAQQKGAIPGVQIASKTGTAEHGTDPRHTPPHAWYIAFAPAQAPKVAVAVLVENGADRLSATGGALAAPIGRAVIEAALQGEP”, the “soluble on expression in E. coli” value was “soluble”.
With “MTAAADLILYNGDVHVLTDTATPADPAHSAVAIRDGRIVGLSNDYDAAFRADTGTREVDLGGRVVVPGFVDAHTHLAVLGKHGVHADLRGADSPAAATARLAERARETDAGWVLGFGYDDSQWSAALSTADLDAVSEARPVAAIREDMHTATVNGVALAEHGDEMPAADVGEDGRIVEDAVEAVYDATDPDLAGTRPLIEAAQREANERGVTAVHEMVRDSHAPRVYRELDAAGELSVRVRLNYWADHLDAVLETGLVTNHGGGMVTVGGIKTYTDGSLGGRTAKLSEPYADAPGETGQWVVDPSALAALVERADDAGLQVVAHAIGDAAVDAVLDAYEDAGERRHRIEHAELASDDAIERMADLGVVASVQPNFLKWAGSGGLYADRLGTARREASNRFADMLDAGVDVAFGSDCMPLAPLVGVHHAVTAPADAQRLSVTAALRAYTSGGARAGCREDEQGVIREGALADLTVLDASPWEHADAIADEVGVSMTVVDGAVVYDGRLEHHHHHH” the “soluble on expression in E. coli” value was “not soluble”.
For “MTAAQGNSNETLFSSYKMGRFDLSHRVVLAPMTRCRALNGVPNAALAEYYAQRTTPGGFLISEGTMVSPGSAGFPHVPGIYSDEQVEAWKQVVEAVHAKGGFIFCQLWHVGRASHAVYQPNGGSPISSTNKPISENRWRVLLPDGSHVKYPKPRALEASEIPRVVEDYCLSALNAIRAGFDGIEIHGAHGYLIDQFLKDGINDRTDQYGGSIANRCRFLKQVVEGVVSAIGASKVGVRVSPAIDHLDATDSDPLSLGLAVVGMLNKLQGVNGSKLAYLHVTQPRYHAYGQTESGRQGSDEEEAKLMKSLRMAYNGTFMSSGGFNKELGMQAVQQGDADLVSYGRLFIANPDLVSRFKIDGELNKYNRKTFYTQDPVVGYTDYPFLAPFSRL”, the “soluble on expression in E. coli” value was “soluble”.
In the case of “MTADDSPSDRWGPRCTTRGPGSDPRFDVPVRGVDVGPETRCAHYHGPRDVIAIRFACCDVFYPCHRCHEETATHPPERWPHDQFNASAVLCGRCRTVLTIEQYLDADHTCPACGAAFNPNCARHHDRYFCVGLEHHHHHH”, the “soluble on expression in E. coli” value is reported as “not soluble”.
In the case of “MTAELLVNVTPSETRVAYIDGGILQEIHIEREARRGIVGNIYKGRVSRVLPGMQAAFVDIGLDKAAFLHASDIMPHTECVAGEEQKQFTVRDISELVRQGQDLMVQVVKDPLGTKGARLTTDITLPSRYLVFMPGASHVGVSQRIESESERERLKKVVAEYCDEQGGFIIRTAAEGVGEAELASDAAYLKRVWTKVMERKKRPQTRYQLYGELALAQRVLRDFADAELDRIRVDSRLTYEALLEFTSEYIPEMTSKLEHYTGRQPIFDLFDVENEIQRALERKVELKSGGYLIIDQTEAMTTVDINTGAFVGHRNLDDTIFNTNIEATQAIARQLRLRNLGGIIIIDFIDMNNEDHRRRVLHSLEQALSKDRVKTSVNGFSALGLVEMTRKRTRESIEHVLCNECPTCHGRGTVKTVETVCYEIMREIVRVHHAYDSDRFLVYASPAVAEALKGEESHSLAEVEIFVGKQVKVQIEPLYNQEQFDVVMM”, the “soluble on expression in E. coli” value is reported as “soluble”.
For “MTAIEQTEAVRPRGTRLPRRARRNQLLGAAQEVFVAQGYHAAAMDDIAERAGVSKPVLYQHFPGKLDLYLALLDQHCEALIQSVRSALASTSDNKQRVRATMDAYFAYVEDDGGAFRLVFESDLTNEPAVRERVDKVTNECAEAICDVIAEDTGLSRAESMLLASGLGGLAQVVARSWLHSDRSVPRDQAVQLLTSLAWRGIAGFPLHGIEQH”, the “soluble on expression in E. coli” value was “not soluble”.
In the case of “MTAQPVETIKIDSEAGELGFERLGVLIKEYKPEKVVLGLPKHMNGDEGIRAEASRDYGTKLANEFGLEVAYQDERLTTAQAEKVLIDGGVRRKERKKSIDKLAAVLILQNYLDAHALKL”, the “soluble on expression in E. coli” value is reported as “not soluble”.
